Source: US20250340595A1 (published 2025)
Several values for one entry are separate records, joined by “and”; a condition that tells them apart may be missing. Equal entries are not always repeated. Where two headings read alike, the source gives them in different places. Starred links: 1 amine or outer side, 2 acyl side, 3 side chain; linkers in the order of their positions; H or OH if unused. Positions of bridges follow the written chain, without caps; N, C: chain ends. Non-standard residues stand in square brackets, D forms with d. No end group written: not given here. *: point of attachment. TATB = O=C(C[*:1])N1CN(C(=O)C[*:2])CN(C(=O)C[*:3])C1; 1Nal = N[C@@H](Cc1cccc2ccccc12)C(=O)O; 2Nal = N[C@@H](Cc1ccc2ccccc2c1)C(=O)O; AzPro = azidopropyl, [N-]=[N+]=NCCC*; Hyp = O=C(O)[C@@H]1C[C@@H](O)CN1; tBuAla = CC(C)(C)C[C@H](N)C(=O)O; 4Pal = N[C@@H](Cc1ccncc1)C(=O)O; Tle = CC(C)(C)[C@H](N)C(=O)O; Aib = CC(C)(N)C(=O)O

Legend:
[1] = target: T1, Human TfR1 protein (R&D Systems, 2474-TR or Acro Biosystems, CD1-H5243) (human, UniProt P02786 89-760); assay: FP competition, competitor BCY15768
T1 sequence (P02786 89-760 limits assumed): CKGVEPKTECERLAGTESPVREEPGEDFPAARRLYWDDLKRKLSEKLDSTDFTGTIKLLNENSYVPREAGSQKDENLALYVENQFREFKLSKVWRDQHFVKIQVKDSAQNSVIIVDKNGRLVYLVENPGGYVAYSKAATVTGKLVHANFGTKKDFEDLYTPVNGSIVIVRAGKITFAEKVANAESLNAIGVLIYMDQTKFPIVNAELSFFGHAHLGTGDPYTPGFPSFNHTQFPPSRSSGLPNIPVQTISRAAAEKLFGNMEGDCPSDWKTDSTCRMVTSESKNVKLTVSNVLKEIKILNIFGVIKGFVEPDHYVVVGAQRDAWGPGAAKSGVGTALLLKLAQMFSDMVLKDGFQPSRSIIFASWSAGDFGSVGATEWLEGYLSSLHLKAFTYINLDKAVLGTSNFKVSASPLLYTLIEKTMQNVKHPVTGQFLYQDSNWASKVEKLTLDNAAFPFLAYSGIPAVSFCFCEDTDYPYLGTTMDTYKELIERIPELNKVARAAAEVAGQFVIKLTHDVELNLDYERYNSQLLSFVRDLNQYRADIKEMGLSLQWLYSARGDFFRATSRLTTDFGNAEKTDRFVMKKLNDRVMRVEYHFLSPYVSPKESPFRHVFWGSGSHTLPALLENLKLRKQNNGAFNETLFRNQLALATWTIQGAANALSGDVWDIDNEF

[2] = target: T2, Recombinant cynomolgus TfR1, His6-tagged (a.a. 89-760) (cynomolgus, UniProt H9EXL1 89-760 (rhesus entry)); assay: SPR, TfR1 on chip
T2 construct: range 89-760; same product number named for FP and SPR; also called Cyno TfR1; Acro Biosystems TFR-C524a
T2 sequence (chain, as listed by the source): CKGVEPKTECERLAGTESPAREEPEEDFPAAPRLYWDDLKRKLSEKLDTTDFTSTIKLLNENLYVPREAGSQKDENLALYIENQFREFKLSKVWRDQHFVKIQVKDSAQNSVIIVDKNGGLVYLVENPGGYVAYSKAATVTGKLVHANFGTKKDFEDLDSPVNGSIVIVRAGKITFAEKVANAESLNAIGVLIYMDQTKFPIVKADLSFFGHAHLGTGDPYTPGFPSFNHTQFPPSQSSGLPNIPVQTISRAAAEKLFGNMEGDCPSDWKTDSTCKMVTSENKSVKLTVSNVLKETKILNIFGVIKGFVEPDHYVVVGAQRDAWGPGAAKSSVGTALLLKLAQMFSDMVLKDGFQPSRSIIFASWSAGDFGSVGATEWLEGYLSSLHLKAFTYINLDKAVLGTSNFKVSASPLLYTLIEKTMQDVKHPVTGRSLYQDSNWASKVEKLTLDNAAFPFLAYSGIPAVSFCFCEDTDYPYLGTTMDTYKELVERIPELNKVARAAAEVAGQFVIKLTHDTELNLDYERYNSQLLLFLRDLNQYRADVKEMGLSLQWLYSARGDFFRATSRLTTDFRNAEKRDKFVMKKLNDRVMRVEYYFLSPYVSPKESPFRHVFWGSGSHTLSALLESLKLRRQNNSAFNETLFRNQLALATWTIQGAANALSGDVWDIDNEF

[3] = target: T1, Human TfR1 protein (R&D Systems, …); assay: FP competition, competitor BCY15768; remark: listed apart in the source
[4] = target: T3, Recombinant human TfR1, His6-tagged (a.a. 89-760) (human, UniProt P02786 89-760); assay: SPR, TfR1 on chip
T3 construct: range 89-760; captured and coupled on an NTA chip for SPR; also called transferrin receptor 1; CD71
T3 sequence (P02786 89-760 limits assumed): as the sequence (P02786 89-760 limits assumed) above

Binder | Ki [1] | Kd [2] | Ki [3] | Kd [4]
ACSPDAYLGC[tBuAla]SYCA (linker 2-10-14 via TATB) [BCY16558] | 1620 nM | 50000 nM | 1620 nM | 20000 nM
Ac-CSPDAHLGCISYC (linker 1-9-13 via TATB) [BCY15891] | 67 nM | 3990 nM | 94 nM | 46 nM
CSPDAHLGCISYC (3 Cys on a scaffold (TATA or TATB assumed by the filing for non-inhibitory peptides; not stated for this one)) [BCY15935] | 300 nM |  | 300 nM | 
ACYLPDWXCGDEYCA (not fully specified; 3 Cys on TATB; core as printed CYLPDW[tBuAla]CGDEYC) [BCY15648] | 107 nM |  |  | 
ACSPDAHLGCISYCA (linker 2-10-14 via TATB) [BCY15468] |  |  | 103 nM | 
ACSPDAYLGC[Tle]SYCA (linker 2-10-14 via TATB) [BCY16966] |  | 1900 nM |  | 
ACPPDAYLGC[Tle]SYCA (linker 2-10-14 via TATB) [BCY16964] |  | 514 nM |  | 
ACSPDAHLGCXSYCA (3 Cys on TATB; core as printed CSPDAHLGC[B-Melle]SYC (beta-methyl isoleucine)) [BCY16040] | 20000 nM |  |  | 
ACSPDAHLGCIS[4Pal]CA (linker 2-10-14 via TATB) [BCY16032] | 654 nM | 30000 nM | 654 nM | 305 nM
NWNCSPDAHLGCISYCK (3 Cys on TATB; C-terminal [K(N3)] 6-azido lysine) [BCY17870] |  |  | 9 nM | 
NWNCSPDAHLGCISYCA (linker 4-12-16 via TATB) [BCY17109] |  | 281 nM and 535 nM |  | 
ACP[Aib]DAYLGC[Tle]SYCA (linker 2-10-14 via TATB) [BCY16963] |  | 501 nM |  | 
ACS[Aib]DAHLGC[Tle]SYCA (linker 2-10-14 via TATB) [BCY16753] | 48 nM | 1700 nM | 48 nM | 12 nM
ACP[Aib]DAHLGC[Tle]SYCA (linker 2-10-14 via TATB) [BCY16962] | 36 nM | 599 nM | 36 nM | 6.1 nM
ACPXDAHLGCISYCA (3 Cys on TATB; core as printed CP[Aib]DAHLGCISYC) [BCY16550] | 56 nM | 682 nM | 56 nM | 18 nM
ACSPDAHLGCIS[1Nal]CA (linker 2-10-14 via TATB) [BCY16029] |  | 5480 nM |  | 
ACSPDAHLGCIS[2Nal]CA (linker 2-10-14 via TATB) [BCY16031] | 119 nM | 6480 nM | 119 nM | 68 nM
Ac-CPPDAHLGCISWC-NH2 (linker 1-9-13 via TATB; SMILES CC[C@H](C)[C@@H]1NC(=O)[C@@H]2CSCC(=O)N3CN(CN(C3)C(=O)CSC[C@H](NC(C)=O)C(=O)N3CCC[C@H]3C(=O)N3CCC[C@H]3C(=O)N[C@@H](CC(=O)O)C(=O)N[C@@H](C)C(=O)N[C@@H](Cc3c[nH]cn3)C(=O)N[C@@H](CC(C)C)C(=O)NCC(=O)N2)C(=O)CSC[C@@H](C(N)=O)NC(=O)[C@H](Cc2c[nH]c3ccccc23)NC(=O)[C@H](CO)NC1=O) [BCY15889] | 40 nM |  |  | 

The next lines start with the values.

Ki [1] | Kd [2] | Ki [3] | Kd [4] | Binder
8 nM | 688 nM | 8 nM |  | Ac-CSPDAHLGCISYCEPW-NH2 (linker 1-9-13 via TATB (inferred)) [BCY17994]
 | 4660 nM |  |  | Ac-CAPDAHLGCISYC (linker 1-9-13 via TATB (inferred)) [BCY17986]
42 nM | 5140 nM | 383 nM | 50 nM | Ac-CSADAHLGCISYC (linker 1-9-13 via TATB (inferred)) [BCY17987]
 | 845 nM |  |  | ACSPDAHLGCISYCEPW (linker 2-10-14 via TATB (inferred)) [BCY17114]
 |  | 8 nM |  | Ac-CP[Hyp]DAYLGCISYC (linker 1-9-13 via TATB) [BCY17990]
 | 2600 nM |  |  | NEVCSPDAHLGCISYCA (linker 4-12-16 via TATB (inferred)) [BCY17112]
 | 1260 nM |  |  | ACSPDAHLGCISYCPIVH (linker 2-10-14 via TATB (inferred)) [BCY17120]
 | 10300 nM |  |  | Ac-N[dW]NCSPDAHLGCISYC (linker 4-12-16 via TATB (inferred)) [BCY18035]
 |  |  | 1660 nM | CPXDAYLGCXSYC (3 Cys on TATA; N-terminal acetyl (Ac); core as printed CP[HyP]DAYLGC[tBuGly]SYC, Same peptide as BCY17991 but cyclised on TATA) [BCY20546]
 |  | 30 nM |  | AzPro-CSPDAHLGCISYC (linker 1-9-13 via TATB (inferred)) [BCY17869]
 | 535 nM |  |  | Ac-NWNCSPDAHLGCISYC (linker 4-12-16 via TATB (inferred)) [BCY17992]
 | 1650 nM |  |  | Ac-CSPDAHLGCISYCE[dP]W (linker 1-9-13 via TATB (inferred)) [BCY18038]
 |  | 9 nM |  | NWNCSPDAHLGCISYCK (3 Cys on TATB; N-terminal acetyl (Ac); C-terminal [K(N3)] 6-azido lysine) [BCY17871]
90 nM | 7310 nM |  | 422 nM | NWNCSPDAHLGCISYC (3 Cys on TATB; N-terminal acetyl (Ac); [NMeTrp] in N-terminal extension) [BCY18036]
2 nM |  | 5 nM | 3.4 nM | CPXDAYLGCXSYCEPW (3 Cys on TATB; N-terminal acetyl (Ac); core as printed CP[HyP]DAYLGC[tBuGly]SYC) [BCY17995]
 | 2080 nM |  |  | Ac-N[1Nal]NCSPDAHLGCISYC (linker 4-12-16 via TATB) [BCY18034]
30 nM |  |  |  | Ac-CS[Hyp]DAHLGCISYC (linker 1-9-13 via TATB) [BCY17989]
4 nM | 589 nM | 6 nM |  | NWNCPXDAYLGCXSYC (3 Cys on TATB; core as printed CP[HyP]DAYLGC[tBuGly]SYC) [BCY18033]
